Results reported in patent publication US20140199706A1.
Read-outs that look alike come from different tables or passages of the source.

How the values were obtained:
yeast proteasome (26S) [1] = tested on: yeast proteasome (26S)
[2] = molecular target: yeast proteasome (26S) (S. cerevisiae (yeast)); test: cell-based or functional assay
yeast proteasome (26S) [3] = molecular target: yeast proteasome (26S); remark: listed apart in the source
[4] = molecular target: proteasome regulatory particle (RP) purified from a ubp6Δ strain

| Molecule | cyclin B degradation assay (yeast proteasome (26S) [1]) | inhibition of degradation of ub-cyclin B (quantitative mass spectrometry, 20-minute incubation) [2] | cyclin B degradation by ubp6Δ proteasomes after add-back of recombinant Ubp6 (yeast proteasome (26S) [3]) | deubiquitination of cyclin B (yeast proteasome (26S) [3]) | ubiquitin chain shortening of ub-cyclin B conjugates [4] | cyclin B degradation assay (yeast proteasome (26S) [3]) |
| --- | --- | --- | --- | --- | --- | --- |
| Ubp6-ublΔ | Deletion of the Ubl domain rendered Ubp6 non-inhibitory in the cyclin B degradation assay (FIG. 4B) |  |  |  |  |  |
| Ubp6 (protein) MSGETFEFNIRHSGKVYPITLSTDATSADLKSKAEELTQVPSARQKYMVKGGLSGEESIKIYPLIKPGSTVMLLGTPDANLISKPAKKNNFIEDLAPEQQVQQFAQLPVGFKNMGNTCYLNATLQALYRVNDLRDMILNYNPSQGVSNSGAQDEEIHKQIVIEMKRCFENLQNKSFKSVLPIVLLNTLRKCYPQFAERDSQGGFYKQQDAEELFTQLFHSMSIVFGDKFSEDFRIQFKTTIKDTANDNDITVKENESDSKLQCHISGTTNFMRNGLLEGLNEKIEKRSDLTGANSIYSVEKKISRLPKFLTVQYVRFFWKRSTNKKSKILRKVVFPFQLDVADMLTPEYAAEKVKVRDELRKVEKEKNEKEREIKRRKFDPSSSENVMTPREQYETQVALNESEKDQWLEEYKKHFPPNLEKGENPSCVYNLIGVITHQGANSESGHYQAFIRDELDENKWYKFNDDKVSVVEKEKIESLAGGGESDSALILMYKGFGL |  | 70% | a marked inhibition of cyclin B degradation (FIG. 1F) was observed | when Ubp6 is incubated in the presence of cyclin B, but without proteasomes, no deubiquitination of cyclin B is observed (FIG. 4D) | addition of purified Ubp6 to RP resulted in chain shortening, although to a lesser extent than with 26S proteasomes (FIG. 6A) |  |
| Ubp6-C118A (protein) MSGETFEFNIRHSGKVYPITLSTDATSADLKSKAEELTQVPSARQKYMVKGGLSGEESIKIYPLIKPGSTVMLLGTPDANLISKPAKKNNFIEDLAPEQQVQQFAQLPVGFKNMGNTAYLNATLQALYRVNDLRDMILNYNPSQGVSNSGAQDEEIHKQIVIEMKRCFENLQNKSFKSVLPIVLLNTLRKCYPQFAERDSQGGFYKQQDAEELFTQLFHSMSIVFGDKFSEDFRIQFKTTIKDTANDNDITVKENESDSKLQCHISGTTNFMRNGLLEGLNEKIEKRSDLTGANSIYSVEKKISRLPKFLTVQYVRFFWKRSTNKKSKILRKVVFPFQLDVADMLTPEYAAEKVKVRDELRKVEKEKNEKEREIKRRKFDPSSSENVMTPREQYETQVALNESEKDQWLEEYKKHFPPNLEKGENPSCVYNLIGVITHQGANSESGHYQAFIRDELDENKWYKFNDDKVSVVEKEKIESLAGGGESDSALILMYKGFGL |  | 70% |  |  |  | a catalytically inactive point mutant of Ubp6 (Ubp6-C118A) proved competent for inhibition (FIG. 4B) |
